The values below come from US20220298217A1 (FLAGSHIP PIONEERING INNOVATIONS VI, published 2022).

“And” between values parts separate entries of the source, which are not always exact repeats. Equal values may be shown once.

This test addresses T1, Flag-PTHR1-YFP (parathyroid hormone receptor 1) expressed in transfected HEK293T cells (human, UniProt Q03431 27-593).
T1 sequence (looked up): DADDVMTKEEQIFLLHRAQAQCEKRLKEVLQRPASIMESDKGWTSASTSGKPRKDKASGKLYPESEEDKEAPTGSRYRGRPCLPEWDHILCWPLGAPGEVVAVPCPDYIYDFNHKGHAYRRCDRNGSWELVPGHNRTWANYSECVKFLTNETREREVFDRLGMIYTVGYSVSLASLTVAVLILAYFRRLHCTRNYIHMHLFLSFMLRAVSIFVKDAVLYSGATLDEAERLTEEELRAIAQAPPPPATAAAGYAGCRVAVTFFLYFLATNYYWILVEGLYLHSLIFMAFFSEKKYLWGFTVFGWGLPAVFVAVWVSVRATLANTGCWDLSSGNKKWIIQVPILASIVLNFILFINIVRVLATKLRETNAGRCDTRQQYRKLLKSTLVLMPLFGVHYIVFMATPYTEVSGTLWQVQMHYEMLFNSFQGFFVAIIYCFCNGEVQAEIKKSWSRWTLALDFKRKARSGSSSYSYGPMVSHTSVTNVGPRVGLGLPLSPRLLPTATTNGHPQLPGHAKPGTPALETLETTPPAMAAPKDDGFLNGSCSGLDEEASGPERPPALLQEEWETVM
Put plainly: cell-based or functional assay.
Consider AVAEIQLMHQRAKWKLELELKVKLLEILKDVY [R2-25], for which the “arrestin 1, plate 15: -log10EC50” value was -8.27 -log10EC50 and -8.59 -log10EC50; the “arrestin 2, plate 16: -log10EC50” value is -8.37 -log10EC50 and -8.76 -log10EC50.

Consider AVAEIQLMHQRAKWKLELELKEKIRKLLEDLL [R2-29], for which the “arrestin 1, plate 17: -log10EC50” value is -8.15 -log10EC50 and -8.77 -log10EC50; the “arrestin 2, plate 18: -log10EC50” value is -8.39 -log10EC50 and -8.46 -log10EC50.

With AVAEIQLMHQRAKWELEFELFREFLKLLVDFF [I3 (R1-97)], the “arrestin 1, plate 5: -log10EC50” value is -5.38 -log10EC50 and -8.1 -log10EC50 and -6.02 -log10EC50; the “arrestin 1, plate 25: -log10EC50” value was -11.5 -log10EC50; the “arrestin 1, plate 25: Emax” value is 10.3; the “arrestin 2, plate 6: -log10EC50” value was -6.2 -log10EC50 and -5.16 -log10EC50 and -6.19 -log10EC50. Moreover, the “arrestin 2, plate 26: -log10EC50” value was -6.36 -log10EC50 and the “arrestin 2, plate 26: Emax” value came out at 21.5.

Turning to AVAEIQLMHQRAKWGLDLELAVKLQEILKDVL [R2-28], the “arrestin 1, plate 17: -log10EC50” value was -15 -log10EC50; the “arrestin 1, plate 17: Emax” value stood at 6.35; the “arrestin 2, plate 18: -log10EC50” value was -6.1 -log10EC50; the “arrestin 2, plate 18: Emax” value was 18.5.

As for AVAEIQLMHQRAKWKILEELLKILIDLLKQYI [R2-48], the “arrestin 1, plate 13: -log10EC50” value was -5.72 -log10EC50; the “arrestin 1, plate 13: Emax” value was 15.1; the “arrestin 1, plate 23: -log10EC50” value is -15.4 -log10EC50; the “arrestin 1, plate 23: Emax” value amounted to 6.53. The “arrestin 2, plate 24: -log10EC50” value is -10.7 -log10EC50 and the “arrestin 2, plate 24: Emax” value worked out at 6.67.

For the molecule AVAEIQLMHQRAKWGLEIELLKLLLSLLKEYI [R2-45], the “arrestin 1, plate 13: -log10EC50” value was -6.32 -log10EC50; the “arrestin 1, plate 13: Emax” value amounted to 20.4; the “arrestin 1, plate 23: -log10EC50” value was -6.33 -log10EC50 and -6.27 -log10EC50; the “arrestin 2, plate 24: -log10EC50” value was -6.47 -log10EC50 and -6.59 -log10EC50.

With AVAEIQLMHQRAKWDLLIELVKLLHELLKEYI [R2-40], the “arrestin 1, plate 11: -log10EC50” value was -6.24 -log10EC50; the “arrestin 1, plate 11: Emax” value came to 14.7; the “arrestin 1, plate 21: -log10EC50” value is -5.44 -log10EC50; the “arrestin 1, plate 21: Emax” value turned out to be 11.4. Also, the “arrestin 2, plate 22: -log10EC50” value is -6.07 -log10EC50 and the “arrestin 2, plate 22: Emax” value stood at 20.9.

For AVAEIQLMHQRAKWGLELELKEKLRKILEDVY [R2-26], the “arrestin 1, plate 17: -log10EC50” value is -7.89 -log10EC50 and -7.57 -log10EC50; the “arrestin 2, plate 18: -log10EC50” value was -7.79 -log10EC50 and -7.9 -log10EC50.

Regarding AVAEIQLMHQRAKWRLEIELLKKLKEILKDVY [R2-34], the “arrestin 1, plate 9: -log10EC50” value is -8.56 -log10EC50; the “arrestin 1, plate 9: Emax” value was 7.29; the “arrestin 1, plate 19: -log10EC50” value is -8.18 -log10EC50 and -8.48 -log10EC50; the “arrestin 2, plate 20: -log10EC50” value is -8.09 -log10EC50 and -8.34 -log10EC50.

For AVAEIQLMHQRAKWDVLIELAKLLAELLRRYH [R2-47], the “arrestin 1, plate 13: -log10EC50” value is -5.84 -log10EC50; the “arrestin 1, plate 13: Emax” value is 15.7; the “arrestin 1, plate 23: -log10EC50” value was -6.19 -log10EC50 and -5.44 -log10EC50; the “arrestin 2, plate 24: -log10EC50” value was -5.46 -log10EC50 and -5.86 -log10EC50.

Turning to AVAEIQLMHQRAKWIQDARRRAFLHKLIAEIH [LA-PM-FL (R1-81)], the “arrestin 1, plate 1: -log10EC50” value is -8.58 -log10EC50 and -8.76 -log10EC50 and -8.45 -log10EC50; the “arrestin 2, plate 2: -log10EC50” value is -8.52 -log10EC50 and -8.51 -log10EC50 and -8.44 -log10EC50.

With AVAEIQLMHQRAKWKLDLELAVSLRKILEDVY [R2-27], the “arrestin 1, plate 17: -log10EC50” value is -7.92 -log10EC50 and -8.02 -log10EC50; the “arrestin 2, plate 18: -log10EC50” value was -7.65 -log10EC50 and -8.08 -log10EC50.

For AVAEIQLMHQRAKWKLELELKAFLDQILKDVL [R2-36], the “arrestin 1, plate 9: -log10EC50” value was -8.83 -log10EC50; the “arrestin 1, plate 9: Emax” value stood at 7.4; the “arrestin 1, plate 19: -log10EC50” value is -8.33 -log10EC50 and -8.54 -log10EC50; the “arrestin 2, plate 20: -log10EC50” value was -8.27 -log10EC50 and -8.6 -log10EC50.

Turning to AVAEIQLMHQRAKWELQEIGIKITLDLLEAYL [R2-39], the “arrestin 1, plate 11: -log10EC50” value is 2.64 -log10EC50; the “arrestin 1, plate 11: Emax” value is 15.4; the “arrestin 1, plate 21: -log10EC50” value was -6.11 -log10EC50 and -6.23 -log10EC50; the “arrestin 2, plate 22: -log10EC50” value was -6.95 -log10EC50 and -6.4 -log10EC50.

As for AVAEIQLMHQRAKWLEELKLKDDLRKILEDVY [R2-30], the “arrestin 1, plate 17: -log10EC50” value is -7.88 -log10EC50 and -8.28 -log10EC50; the “arrestin 2, plate 18: -log10EC50” value was -7.92 -log10EC50 and -8.3 -log10EC50.

On to AVAEIQLMHQRAKWEIQEIGIKITLDLLQTLK [R2-41], for which the “arrestin 1, plate 21: -log10EC50” value was -8.42 -log10EC50; the “arrestin 1, plate 21: Emax” value was found to be 6.44; the “arrestin 2, plate 22: -log10EC50” value is -6.03 -log10EC50; the “arrestin 2, plate 22: Emax” value turned out to be 23.7.

Turning to SVMMIQVMHDLAKIRAEYELREMLLRLLEEIF [R2-8], the “arrestin 1, plate 9: -log10EC50” value was -8.43 -log10EC50; the “arrestin 1, plate 9: Emax” value stood at 6.29; the “arrestin 2, plate 10: -log10EC50” value is -9.46 -log10EC50.

With GVAMIQIMHDIAKIRAEYELREMLLRLLEEIF [R2-2], the “arrestin 1, plate 7: -log10EC50” value was -14 -log10EC50 and -12.2 -log10EC50; the “arrestin 2, plate 8: -log10EC50” value was 5.1 -log10EC50 and -14.8 -log10EC50.

Consider AVAEIQLMHQRAKWSILEELLKILTALLDEYI [R2-46], for which the “arrestin 1, plate 13: -log10EC50” value is -6.25 -log10EC50; the “arrestin 1, plate 13: Emax” value was found to be 17.3; the “arrestin 1, plate 23: -log10EC50” value was -6.35 -log10EC50 and -6.4 -log10EC50; the “arrestin 2, plate 24: -log10EC50” value is -6.26 -log10EC50 and -6.27 -log10EC50.

Consider AVAEIQLMHQRAKWSLREELEKLLKELLKEYI [R2-44], for which the “arrestin 1, plate 13: -log10EC50” value is -8.54 -log10EC50; the “arrestin 1, plate 13: Emax” value worked out at 7.41; the “arrestin 1, plate 23: -log10EC50” value is -7.82 -log10EC50 and -8.55 -log10EC50; the “arrestin 2, plate 24: -log10EC50” value was -7.99 -log10EC50 and -5.45 -log10EC50.

On to AVAEIQLMHQRAKWEIQEIGIKITLELLKEYI [R2-37], for which the “arrestin 1, plate 9: -log10EC50” value is -5.08 -log10EC50; the “arrestin 1, plate 9: Emax” value worked out at 19.4; the “arrestin 1, plate 19: -log10EC50” value was -3.6 -log10EC50 and -6.48 -log10EC50; the “arrestin 2, plate 20: -log10EC50” value was -6.3 -log10EC50 and -6.41 -log10EC50.

As to AVAEIQLMHQRAKWGVELQLKVDLRRILEDVY [R2-35], the “arrestin 1, plate 9: -log10EC50” value was -3.53 -log10EC50; the “arrestin 1, plate 9: Emax” value was found to be 16.9; the “arrestin 1, plate 19: -log10EC50” value was -6.57 -log10EC50 and -7.44 -log10EC50; the “arrestin 2, plate 20: -log10EC50” value was -7.67 -log10EC50 and -7.82 -log10EC50.

On to AVAEIQLMHQRAKWLNELRLKEEMRKILEDVY [R2-33], for which the “arrestin 1, plate 9: -log10EC50” value is -8.23 -log10EC50; the “arrestin 1, plate 9: Emax” value was 7.38; the “arrestin 1, plate 19: -log10EC50” value was -7.99 -log10EC50 and -8.4 -log10EC50; the “arrestin 2, plate 10: -log10EC50” value was -8.31 -log10EC50. Further, the “arrestin 2, plate 20: -log10EC50” value was -8.09 -log10EC50 and -8.12 -log10EC50.

Regarding AVAEIQLMHQRAKWGLDLELRARLREILRDVY [R2-31], the “arrestin 1, plate 17: -log10EC50” value was -8 -log10EC50 and -8.53 -log10EC50; the “arrestin 2, plate 18: -log10EC50” value is -8.12 -log10EC50 and -8.18 -log10EC50.

For the molecule AVAEIQLMHQRAKWELQEIGIAITLRLLARYI [R2-43], the “arrestin 1, plate 13: -log10EC50” value is -8.31 -log10EC50; the “arrestin 1, plate 13: Emax” value is 7.23; the “arrestin 1, plate 23: -log10EC50” value was -6.3 -log10EC50 and -8.03 -log10EC50; the “arrestin 2, plate 24: -log10EC50” value was -6.24 -log10EC50 and -7.91 -log10EC50.

For GVAMLQIMHDLAKIKQELELKDSMKKILEDVL [R2-50], the “arrestin 1, plate 15: -log10EC50” value is -5.92 -log10EC50; the “arrestin 1, plate 15: Emax” value worked out at 32.9; the “arrestin 1, plate 25: -log10EC50” value was -13.8 -log10EC50; the “arrestin 1, plate 25: Emax” value is 6.47. The “arrestin 2, plate 26: -log10EC50” value is -13.9 -log10EC50 and the “arrestin 2, plate 26: Emax” value came to 6.62.

Take AVAEIQLMHQRAKWELEYELFEMFLKLLEEIF [I1 (R1-100)]: the “arrestin 1, plate 7: -log10EC50” value was -6.22 -log10EC50 (2×) and -6.24 -log10EC50; the “arrestin 2, plate 8: -log10EC50” value is -5.41 -log10EC50 and -7.67 -log10EC50 and -6.27 -log10EC50.

On to AVAEIQLMHQRAKWELLEELLKILLELLKEYI [R2-38], for which the “arrestin 1, plate 21: -log10EC50” value is -10.7 -log10EC50; the “arrestin 1, plate 21: Emax” value worked out at 6.36; the “arrestin 2, plate 22: -log10EC50” value is -14 -log10EC50; the “arrestin 2, plate 22: Emax” value turned out to be 6.45.

With AVAEIQLMHQRAKWAIQEIGIKITRELLERYL [R2-42], the “arrestin 1, plate 11: -log10EC50” value was -7.98 -log10EC50; the “arrestin 1, plate 11: Emax” value turned out to be 7.87; the “arrestin 1, plate 21: -log10EC50” value was -4.99 -log10EC50 and -7.96 -log10EC50; the “arrestin 2, plate 22: -log10EC50” value is -7.63 -log10EC50 and -8.09 -log10EC50.
